Measurements taken from US20210355194A1.

Assays:
[1] = target: ACE2 on VERO E6 cells (African green monkey); assay: flow cytometry, VERO E6 cells, positive control
[2] = target: SARS-CoV-2 antigen of the epitope binning (SARS-CoV-2) (UniProt P0DTC2); assay: epitope binning; competitor 2-2
[3] = target: SARS-CoV-2 antigen of the epitope binning (SARS-CoV-2) (UniProt P0DTC2); assay: epitope binning; competitor 1-32
[4] = target: SARS-CoV-2 antigen of the epitope binning (SARS-CoV-2) (UniProt P0DTC2); assay: epitope binning; competitor 1-16
[5] = target: SARS-CoV-2 antigen of the epitope binning (SARS-CoV-2) (UniProt P0DTC2); assay: epitope binning; competitor 2-6
[6] = target: SARS-CoV-2 antigen of the epitope binning (SARS-CoV-2) (UniProt P0DTC2); assay: epitope binning; competitor 2-8
[7] = target: SARS-CoV-2 antigen of the epitope binning (SARS-CoV-2) (UniProt P0DTC2); assay: epitope binning; competitor 2-5
[8] = target: SARS-CoV-2 antigen of the epitope binning (SARS-CoV-2) (UniProt P0DTC2); assay: epitope binning; competitor Acro mAb
[9] = target: SARS-CoV-2 antigen of the epitope binning (SARS-CoV-2) (UniProt P0DTC2); assay: epitope binning; competitor 1-35
[10] = target: SARS-CoV-2 antigen of the epitope binning (SARS-CoV-2) (UniProt P0DTC2); assay: epitope binning; competitor CR3022
[11] = target: SARS-CoV-2 antigen of the epitope binning (SARS-CoV-2) (UniProt P0DTC2); assay: epitope binning; competitor 2-11

| Substance | MFI [1] | MFI/Baseline [1] | epitope binning score [2] | epitope binning score [3] | epitope binning score [4] | epitope binning score [5] | epitope binning score [6] | epitope binning score [7] | epitope binning score [8] | epitope binning score [9] | epitope binning score [10] | epitope binning score [11] |
| --- | --- | --- | --- | --- | --- | --- | --- | --- | --- | --- | --- | --- |
| S1 RBD Fc fusion (from UniProt P0DTC2 319-541) | 26100 | 75.9 | – | – | – | – | – | – | – | – | – | – |
| CR3022 (antibody) | – | – | 0 | 1 | 2 | 2 | 0 | 0 | 2 | 2 | 0 | 1 |
